Target: T1, mouse TLR9 (mouse, UniProt Q9EQU3 26-1032)
T1 construct: Endogenous TLR9 of mouse spleen cDCs (staining) and of BM-cDC lysate (immunoprecipitation); also called endogenous TLR9
T1 sequence: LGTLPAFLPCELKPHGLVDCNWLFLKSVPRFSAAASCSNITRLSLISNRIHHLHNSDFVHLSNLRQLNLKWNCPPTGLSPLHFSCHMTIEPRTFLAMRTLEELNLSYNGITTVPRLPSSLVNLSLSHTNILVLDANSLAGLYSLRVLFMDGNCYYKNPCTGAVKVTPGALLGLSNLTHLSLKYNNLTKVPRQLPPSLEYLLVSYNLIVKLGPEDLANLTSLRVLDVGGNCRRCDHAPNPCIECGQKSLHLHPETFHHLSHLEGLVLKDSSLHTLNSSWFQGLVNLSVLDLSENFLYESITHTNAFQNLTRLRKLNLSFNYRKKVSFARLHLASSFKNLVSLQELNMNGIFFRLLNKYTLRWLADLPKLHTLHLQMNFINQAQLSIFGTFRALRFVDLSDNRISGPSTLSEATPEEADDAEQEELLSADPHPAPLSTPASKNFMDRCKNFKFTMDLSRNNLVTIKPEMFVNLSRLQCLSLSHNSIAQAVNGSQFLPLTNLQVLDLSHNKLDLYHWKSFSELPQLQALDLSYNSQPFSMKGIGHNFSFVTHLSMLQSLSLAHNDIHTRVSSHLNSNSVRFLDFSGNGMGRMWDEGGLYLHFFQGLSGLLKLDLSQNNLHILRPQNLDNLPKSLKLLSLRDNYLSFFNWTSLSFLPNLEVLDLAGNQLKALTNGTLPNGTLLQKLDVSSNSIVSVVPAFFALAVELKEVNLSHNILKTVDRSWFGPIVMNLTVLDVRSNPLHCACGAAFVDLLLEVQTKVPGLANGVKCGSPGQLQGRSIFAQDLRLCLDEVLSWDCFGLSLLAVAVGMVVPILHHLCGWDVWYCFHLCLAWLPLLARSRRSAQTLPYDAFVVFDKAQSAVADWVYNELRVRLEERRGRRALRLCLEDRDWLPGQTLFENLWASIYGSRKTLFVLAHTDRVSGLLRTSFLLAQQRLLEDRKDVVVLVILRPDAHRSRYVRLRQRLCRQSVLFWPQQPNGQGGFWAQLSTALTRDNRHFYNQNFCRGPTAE
Test: immunoprecipitation from BM-cDC lysate, Western blot; also staining of spleen cDCs
Procedure: The protein expression of TLR9 was analyzed by Western blot. BM-cDCs were washed twice with 1×PBS and recovered. The recovered cells were lysed for 30 minutes in an ice-cold buffer for lysis (1% Triton X 100, 20 mM Tris-HCl (pH 7.4), 150 mM NaCl, 1 mM CaCl₂, 1 mM MgCl₂, 10% glycerol, 1 mM DTT and Complete protease Inhibitor Cocktail (F. Hoffmann-La Roche, Ltd.)) and centrifuged at a high speed, followed by the recovery of the supernatant of the cell lysate.
The recovered cell lysate was added to N-hydroxy succinimide-activated Sepharose 4FF beads bound with the anti-TLR9 monoclonal antibody (NaR9), and the mixture was stirred at 4° C. for 2 hours. TLR9 was immunoprecipitated by this step. The beads thus stirred were washed three times with an ice-cold buffer for washing (0.1% Triton X 100, 20 mM Tris/HCl (pH 7.4), 150 mM NaCl, 1 mM CaCl₂), 1 mM MgCl2, 0.1% glycerol, and 1 mM DTT). To the washed beads, an SDS sample buffer (125 mM Tris/HCl [pH 6.8], 20% glycerol, 4% SDS, 10% 2-ME, and 0.005% bromophenol blue) was added, and the mixture was heated at 96° C. for 5 minutes for protein denaturation treatment. The sample thus prepared was subjected to polyacrylamide electrophoresis, and the protein was transferred to a PVDF membrane and Western-blotted. […]

binding result: binds
B1: anti-mouse TLR9 monoclonal antibody NaR9 (antibody, IgG2a, V domains shown)
VH: QVHLQQSGPDLVKPGASVQMSCKTSDYTFTNYYLHWVRQRPGQGLEWIGWIYPGDGSTKYNDQFRGRTTLTADKSSSTAYMFLSSLTSEDSAIYFCAKSWDYFDYWGQGTTLTVSS
VL: DIQMTQSPSSLSASLGGKVTITCKASQDIDNYIAWYQHKPGKGPRLLIHYASTLQPGIPSRFSGSGSGRDYSLSISNLEPEDIATYYCLQYDDLYTFGGGTKLEIK
notes: Mouse hybridoma antibody, subclass IgG2a/kappa, purified from ascitic fluid; They may therefore cover only the variable regions, possibly with a leader; also called NaR9 antibody; anti-TLR9 monoclonal antibody (NaR9)

Source: US20190292270A1 (UNIVERSITY OF TOKYO, published 2019)
